The chains are these.
B1: His-tagged FHOD1-N3 (1–360) [human] / GST-fused FHOD1–DAD (1081–1145) [human] (parent complex)
chain 1: MAGGEDRGDGEPVSVVTVRVQYLEDTDPFACANFPEPRRAPTCSLDGALPLGAQIPAVHRLLGAPLKLEDCALQVSPSGYYLDTELSLEEQREMLEGFYEEISKGRKPTLILRTQLSVRVNAILEKLYSSSGPELRRSLFSLKQIFQEDKDLVPEFVHSEGLSCLIRVGAAADHNYQSYILRALGQLMLFVDGMLGVVAHSDTIQWLYTLCASLSRLVVKTALKLLLVFVEYSENNAPLFIRAVNSVASTTGAPPWANLVSILEEKNGADPELLVYTVTLINKTLAALPDQDSFYDVTDALEQQGMEALVQRHLGTAGTDVDLRTQLVLYENALKLEDGDIEEAPGAGGRRERRKPSSEE
chain 2: MPTVGPSTASPEEPPGSSLPSDTSDEIMDLLVQSVTKSSPRALAARERKRSRGNRKSLRRTLKSG

The variants in one assay derive from B1. Briefly: GST pull-down, SDS-PAGE, CBB staining, band quantification; parent: 100; read off a plot.
For the variant chain 2 S51D, chain 2 S57D, chain 2 T61D, the percent of parent is about 6%.

chain 2 R55D: the percent of parent is about 16%.

For the variant chain 2 R48D, the percent of parent was about 26%.

For the variant chain 2 R59E, the percent of parent is about 18%.

Variants of B1 are the subject of a further assay. The assay is described as above. The source holds these as a separate data set.
Turning to chain 2 V35A, the percent of parent was about 96%.

For the variant chain 2 V32A, the percent of parent is about 95%.

Regarding chain 2 M28A, the percent of parent is about 97%.

As to chain 2 L31A, the percent of parent was about 97%.

The variants in a further assay derive from B1. The assay is described as above. The source holds these as a separate data set.
As to chain 1 D290R, the percent of parent is about 52%.

Regarding chain 1 E331A, the percent of parent is about 28%.

For chain 1 D296R, the percent of parent was about 66%.

As to chain 1 D292R, the percent of parent was about 66%.

(Values after article PMC12858348, “Structural basis underlying the autoinhibition of the formin FHOD1 and its phosphorylation-dependent activation” (The Journal of Biological Chemistry, 2025).)
